In the nanobody polyreactivity screen of Harvey et al. (2022):

Experiment: yeast display, Sf9 membrane polyspecificity reagent, FACS + sequencing; frameworks hold sequencing errors
Outline: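 After 36–48 hours of galactose induction, yeast (Saccharomyces cerevisiae BJ5465) displaying a synthetic nanobody library were stained at 4 °C for 1 hour with 10% biotinylated, detergent-solubilized Sf9 membrane reagent. Streptavidin microbeads enriched the stained cells before FACS sorting into low and high (top ~1%) gates on anti-HA and streptavidin fluorescence. Each clone's polyreactivity label reflects its gate of origin.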

Sequence | polyreactivity (PSR sort gate)
QVQLVESGGGLVQAGGSLRLSCAASGITFPGYAMGWYRQAPGKERELVAAIDWSGDGTYYADSVKGRFTISRDNAKNTVYLQMNSLKPEDTAVYYCAKDNYPNHSTVLAVIYDYWGQGTQVTVSS | low polyreactivity
QVQLVESGGGLVQAGGSLRLSCAASGLIFRLYAMGWYRQAPGKERELVAAISVSGAITYYADSVKGRFTISRDNAKNTVYLLMNSLKPEDTAVYYCNAQAVFRRDGYVYWDVDYWGQGTQVTVSS | low polyreactivity
QVQLVESGGGLVQAGGSLRLSCAASGRTFGGNVRGWYRQAPGKERELVAAISYSGGSTHYADSVKGRFTISRDNAKNTVYLQMMSLIPEDTAVYYCNKPFPYYPDGPNGYDYWGQGTQVTVSS | low polyreactivity
QVQLVESGGGLVQAGGSLRLSCAASGSIFSKYTMGWYRQAPGKERELVAAISRAGSTYYADSVKGRFTISRDNAKNTVYLQMNSLKPEDTAVYYCAAEWSDSVYYSYEYWGQGTQVTVSS | high polyreactivity
QVQLVESGGGLVQAGGSLRLSCAASGFIFGPNAMGWYRQAPGKERELVAAISWIGSSTYYADSVKGRFTISRDNAKNTVYFQMNSLKPQDTAVYYCAADSSERRLMDFDYWGQGTQVTVSS | low polyreactivity
QVQLVESGGGLVQAGGSLRLSCAASGSTFGTYARGWYRQAPGKERELVAAISWSGGSTYYADSVKGRFTISRDNAKNTVYLQMNSLKPEDTAVYYCNAKTSIGTWVGDDYWGQGTQVTVSS | low polyreactivity
QVQLVESGGGLVQAGGSLRLSCAASGFTFKYYTMGWYRQAPGKERELVAAISSAASTNYADSVKGRFTISRDNAKNTVYLQMNSLKPEDTAVYYCNADITGWARIRYQWIRQYDYWGQGTQVTVSS | high polyreactivity
QVQLVESGGGLVQAGGSLRLSWAASGRIFYGYTMGWYRQAPGKERELVASITIRGSRTYYADSVKGRCTISRDNAKNTVYLQINSLKPEDTAVYYCAADFVPARTVHRYDYWGQGTQVTVSS | low polyreactivity
QVQLVESGGGLVQAGGSLRLSCAASGRIFVNYAMGWYRQAPGKERELVAAITSDGSTSYADSVKGRFTISRDNAKNTVYLQMNSLKPEDTAVYYCAKDFFEHSPVSHTYSSSNYDYWGQGTQVTVSS | low polyreactivity
QVQHVESAGGLVQAAGSLRLSCAASGLSYSRYAMGWYRQAPGKERELVAAITWSGSSTYYADSVKGRFTISRDNAKNTVYLQMNSLKPEDTAVYYCAGRYGYSRGPYYRSDYWGQGTQVTVSS | high polyreactivity
QVQLVESGGGLVQAGGSLRLSCAASGRILPRNAMGRYRQAPGKEREVVAGIYSDGSTNYADSVKGRFTISRDNAKNTVYLQMKSLKPEETAVYYCAKQFSSYQYFIILISPGDYWGQGTQVTVSS | low polyreactivity
QVQHVESGGGLVQAGGSLRLSCAASGRTFGINALGWYSQAPGNESELVADISGDGGNTYYADSVKGRFTISRDNAKNTVFLQMNSLKPEDTAVYFCATRYEKFRYDYWGQGTQVTVSS | low polyreactivity
QVQLVESGGGLVQAGGSLRVSCAASGRTFYRKAMGWYRHAPGKERSLVAAISSGGSTTYADSVKGRFTISRDNAKNTVYLQMISLKPEDTAVYYCAARSHAGSVCPRLKEYDFWGQGTQVTVSS | low polyreactivity
QVQLVESGGGLVQAGGSLRLSCAASGSIFSKNAMGWYRQAPGKERELVAAISSSGGITYYADSVKVRFTISRDNANNTVYLQMNSLKPEDTAFYYCATLGGAIRQAFEYWGQGTQVNVSS | low polyreactivity
QVQLVESGGGLVQAGGSLRLSCAASGIIFRRYAMGWYRQAPGKERELVATITRSGSTNYADSVKGRFTISRDNAKNTVYLQMNSLKPEDTAVYYCNADYIRGGWYSEDYWGQGTQVTVSS | high polyreactivity
QVQLVESGGGLVQAGGSLRLSCAASGSTFYRYAMGWYRQAPGKERELVAAIRGSGGRTYYADSVKGRFTISRDNAKNTVYLQMNSLKPEDTAVYYCAAYRGVSQKGDYWGEGTQVTVSS | high polyreactivity
QVQLVESGGGLVQAGGSLRLSCAASGRTFAYNAMGWYRQAPGKERELVAAISRSGGSTYYADSVKGRFTISRDNAKNTVYLQMNSLKPEDTAVYYCNKVTHSYLYFAAGDYWGLGTQVTVSS | high polyreactivity
QVQLVESGGGLVQAGGSLRLSCAASGRTFHVYARGWYRQAPGKERELVAAISGRTGSTYYADSVKGRFTISRDNAKNTVYLQMNSLKPEDTAVYYCAARRWSHGTGYGSWGQGTQVTVSS | high polyreactivity
QVQLVESGGVLVQAGGSLRLSCAASGSTFYTYAMGWYRQAPGKERELVAAITRRGGRTYYADSVKGRFTISRDIAKNTVYLQMNSLKPEDTSVYYCAAYPWATCYGEWGQGTQVTVSS | high polyreactivity
QVQLVESGGGLVQAGGSLRLSCAASGFISPYAMRWYRQAPGKERELVAVITSSGGSTYYADSVKGRFTISRDNAKNTVYLQMNSLKPEDTAVYYCAARFYFRWYYYGSYANYWGQGTQVTVSS | high polyreactivity
QLQLVESGGGLVQAGGSLRLSCAASGFTFRWNGMGWYRQAPGKERELVPSISSTGGSTYYADSVKGRFTISRDNAKNTVYLQMNSLKPEDTAVYYCNAVVTYHYSVTSVGSRFDYWGQGTQVTVSS | high polyreactivity
QVQLVQSGGGLVQAGGSLRLSCADSGRTFTRYTMGWYRQAPGKERELVAAISSGGSTTYADSVKGRFTISRDNAKNTVYLQMNSLKPEDTAVYYCAAGLVYRGYRRDYWGQGTQVTVSS | low polyreactivity

Sequence | polyreactivity (PSR sort gate)
QVHHVESGGGLVQAGGSLRLSCAASGRIFYPYAMGWYRQAPGKERELVASITSGGGTYYADSVKGRFTISRDNAKNTVYLQMNSLKPEDTAVYYCAAKYYTSWIRYDYWGQGTQVTVSS | low polyreactivity
QVQLVESGGGIVQAGGSLRLSCAASGFIIRPYAMGWYRQAPGKERELVAAITGGGSTYYADSVKGRFTISRDNAKNTVYLQMNSLKPEDTAVYYCNADRRRRSGGFAGWHFQRNVYWGQGTQVTLSS | low polyreactivity
QVQLVESGGGLVQAGGSLRLSCAASGSTFENYVMGWDRQAPGKERELVAAISRGGGSTHYADSVKGRFTISRDNANNTVYLQMNSLKPEDTAVYYCAARYQPYVGSRSISTGIYYYWGQGTQVTVSS | low polyreactivity
QVQLVESGGGLVQAGGSLRLSCAASGFIFGKFAMGWYRPAPGKERELVAAITSDGRTYYADSVKGRFTISRDNAKNTVYLQMNSLKPEDTAVYYCAVDYYWYWYSGYDDYWGQGTQVTVSS | high polyreactivity
QVQLVESGGGLLQAGGSLRLSCAASGRIFYSNAMGWYRQAPGKERELVATRTRRGGGTYYADSVKGRFTISRDNAKNSVYLQMNSLKPVDTAVYSCNAYDILPGGNFWYWYGSWGQGTQVTVSS | high polyreactivity
QVQLVESGGGLVQAGASLRLSCAASGSIFADYAMGWYRQAPGKERELVAAISYNGDSTYYADSVKGRFTISRDNAKNTVYLQMNSLKPEDTGVYYCATEDNYWYVTGDLYHTAFYYWGQGTQVTVSS | low polyreactivity
QVQLVESGGGLVQAGGSLRLSCAASGFTFDQNAMGWYRQAPGKERELVAAISVGGGSTYYADSVKGRFTISRDNAKNTVYLQMNSLKPEDTAVYYCAASYVYPASFHYYYWGQGTQVTVSS | high polyreactivity
QVQLVESGGALVQAGGRLRLSCAASGTFERKVMGWYIHAPGKERELVAAISRSGSSTYYADSLKGRFTISRDNAKNTVYLQMNSLKPEDTAVYYCAARGTKQHFNYWGQGTQVTVSS | high polyreactivity
QVQLVESGGGLVQAGGSLRLSCAASGYIFALNAMGWYRPAPGKEWELVAAINDSGDSTYYADSVKGRFTISRDNAKNTVYLQMNSLKPEDTAVYYCAAGFSYEWCYPTFDYWGQGTQVTVSS | low polyreactivity
QVQLVESGGGLVQAGGSLRLSCAASGRIFTYNAMGWYRQAPGKERELVAASSRRGGTTYYADSVKGRFTISRDIAKITVYLQMNSLKPEDTAVYYCAARGQYRYSFGDYSWGQGTQVTVSS | high polyreactivity
QVQLVESGGGLVQAGGSLRLSCAASGFIFIYYAMGWYRQAPGKERELVATINGITGSTYYADSVKGRFTISRDNAKNTVYLQMNSLKPEDTAVYYCAKVPRKYRAWMDYWGQGTQVTVSS | high polyreactivity
QDQLVESGGGLVQAGGSLRLSCAASGSTIRANAMGWYRQATGKERELVAAITKNGGSTYYADSVKGRFTISRDNAKNTVYLQMNSLKPEDTAVYYCAARRSSRRPPYYYWGQGTQVTVSS | high polyreactivity
QVQLVESGGGLVQAGGRLRLSSAASGSTFGYYAMGWYRQAPGKERELVAAISAGGGSTYYADSVKGRFTISRDNAKNTVYLQMISLKPEDTAVYYCAARGPHIPVKTYDYWGQGTQVTVSS | high polyreactivity
QVQLVESGGGLVQAGGSLRLSCAASGFIFPSYAMGWYRQAPGKERELVAAITRSSGSTYYADSVKGRFTISRDNAKNTVYLEMNCLKAVDTAVYYCNAFDYSYYRSPEMDYWGQGTQVTVSS | high polyreactivity
QVQLVESGGGLVQAGGSLRLSCAASGRFFKSYAMGWYRQAPGKERELVAAISRSDDTTYYADSVKGRFTISRDNAKNTVYLQMNSLKPEDTAVYYCAADTWRDGDDYWGQGTQVTVSS | low polyreactivity
QVQLVESGGGLVQAGGSLRLSCAASGRIFRTYAMGWYRPAPGKERELVAAISGSGGRTYYADSVKGRFTISRDNAKNTVYLQMNSLKPEDTAVYYCANYVSIVRYGSTTNYDYWGQGTQVTVSS | high polyreactivity
QVQLVESGGGLVQAGGSLRLSCAASGFTFWYYAMGWYRQAPGKERELVAAISWSGGSTSYADSVKGRFTISRDNAKNTVYLQMNSLKREDTAVYYCAASDYYYYSWRPGDTWYEYWGQGTQVSVSS | high polyreactivity
QVHLVESGGGLVQAGGSLRLSCAASGSIIIRNAMGWYRQAPGKERELVATITRSGSTYYADSVKGRFTISRDNAKNTVYLQMNSLKPEDTAVYYFAADWPNLVEYYYWGQGTQVTVSS | high polyreactivity
QVQLVESGGGLVQAGGSLRLSCAASGSTLVDYAMGWYRQAPGKERELVATISFRGGSTYYADSVKGRCTISRDNAKNTVYLQMNSLKPEDTAVYYCAAEYGPSLYYYYGHAAYAYGYWGQGTQVTVSS | low polyreactivity
QVQLVESVGGLVQAGGSLRLSCAASGRTIRWYAMGWYRQAPGKERELVAAITFRGGRTYYADSVKGRFTISRDNEKNTVYLQMNSMKPEDTAVYYCNAVTYSSPYRFDYWGQGTQVTLSS | low polyreactivity
QVQLVESGGGLVQAGGSLRLSCAASGFTFERYTMGWYRQAPGKERELVATISRRSGRTSYADSVKGRFTISRDNAKNTVYLQMNSLKPEDTAVYYCAVDDAYPDRYDYWGQGTQVTVSS | high polyreactivity
